Results from the DeepSol protein solubility set.

Test: soluble on expression in E. coli; label from the status in PepcDB or PDB records

Sequence	soluble on expression in E. coli
MGSDKIHHHHHHMNDYYDLLDRVKILIKLGRYKEALRIIDEVIEDSPDVSFLYYKISILFTCRRFEEAKSTLNTAISIFPGSTVFRIWKMVLALETKDVLSMAQINFNDNSVASSQLNAPFQSMDFNDNYAYTFSKSVRDLIMKLGKSAIYCDLQQLKEKILTERISTETINGLYTDIMDYRNRDIVELSSYGRAFYFYSIGRIGDSFIEISSLPDHEVFKAFILGKYSDFLKQTYEIADPYTRAVRFHILRLRELSLKEIETASYIGMDELVMSKRIIEFNGSSLSTQVVVNKVPESHL	not soluble
MGSDKIHHHHHHMNEGKILSGLLAPHPPHLVYGENPPQNEPRSQGGWEPLRWAYDQVRENIEHLKPDVLIVHSPHWITQVGHHFLGVPRLTGRSVDPIFPNLFRYDFGMNVDVELAEACCEEATKLGLVSKMMRNPSFRVDYGTITTLHMVRPQWDIPVVGISANNTPYYLNTKEGLGEMDLLGRATREAIRKTGRRAVLLASNTLSHWHFHEEPALPEDMSKEHPERYDGYLWDVRMIELMRKGHMKEVFELLPQFIEEAFAEIKSGAFTWMHAAMGYPELAGKLHGYGTVIGTGNAVIEWNLEDVGLSRLESVA	not soluble
MGSDKIHHHHHHMNEPHGERISVEIPGLERILRGGFLPGRSYLVSGGPGTGKTTLGLQYLASSADGNGLLISLGESERNLRADALRIGLSLDGTSVIDLSPGADAEPEAAYTLLEPWEAEGVDIRSRIGALLPDGPPERVFIDALSQLRQLMPDAYQFRKQVMGLLEYLNSAGTTVLYTAEQGSSADTDLRYLGDGILELEHRENRRILRVLKFRGSGFSEGEHTLRLGDHGMQVFERLMPGEHRRTYVAEELPCGIGELDRLSGGGITRGTVTIISGPTGVGKTSLGLQYMHEAARRGERSVVYTFEESIGTLRTRCEAIGIPVSDMMAKGSLSIDEVEPLHYSPDEFAWRVRTEVEQQGARMVMLDSLAGFRQSVRGDDITAHAHALCHYLSNMGVTVLLVNEQSAIAGEELRPSEDDINYLADTIVLLRYMELDGGLRKAIGILKKRTGDFEKTLREFQITREGLRVGAPLYGLQGILQGIPSKIATLDATE	not soluble
MGSDKIHHHHHHMNFIEQISENNQFPIIFVGSGITQRYFENAPTWEKLLKDIWLELFDEESYYAKAFELRERFENNDFDIYTNLASLLEKEVSKAFINGNIQVDNLDLKTAYELNISPFKQLVANRFSNLKIREEKIEEIKQFSQMLSKARIIITTNYDNFIEECLKTINVSVKINVGNKGLFLKSSDYGELYKIHGTVDDASTITITKEDYEKNVTKSALINAKILSNLVESPILFLGYSLTDENIRKLLTDFAENSPFDISESAQKIGVVEYLPDSESIETVVSSLPDLSVYYSCLKTDNFTNIYRLISKINQGFLPSEIAKYENVFRKIIEVKGESKDLKTVLTSYEDLANLTEDEIRSKNIVVAFGDERYIYKFPDFKEYVRSYFLDKETIPQEIVIRFIATQPVASHLPIKKYMFAMSEYISKDSNKYTENIKKRLSKEEELSLDDFTSSIGVPLLHSKTLERQTEIVGILEADVPDNVRYNFIATHIKNFPKEELFLLVEKIIDEGIFETSRRRFLKAFDLLHY	not soluble
MGSDKIHHHHHHMNFTKIAVSAGCILALCAGCGANDTSSTKEKASSEKSGVTKEITASVNKMETIISKLNDSVEKGDQKEIEKKGKELNSYWLSFENDIRSDYPFEYTEIEKHLQPIYTEAQKDKPDAGKIKTESESLKASLEDLTEAKKSGKKASDQLAKAADEYKGYVKEQSDQLVKATEAFTGAVKSGDIEKSKTLYAKARVYYERIEPIAESLGDLDPKIDARENDVEEGDKWTGFHKLEKAIWKDQDISGEKATADQLLKDVKELDGSIQSLKLTPEQIVAGAMELLNEAGISKITGEEERYSRIDLVDLMANVEGSEAVYQTVKSALVKDHSDLTEKLDTEFSEFEVLMAKYKTNDQSYTSYDKLSEKQIRELSTKLTTLSETMSKIANVL	not soluble
MGSDKIHHHHHHMNGKAVQLKEEADEPGWEVDPDDEWGVAVVETVGRQLKLRREALGMRAADFGTAVGYGEDMVYKIESGKRIPRPEFLDRADELLGAGGLLSAMKEDVKKVRYPKNVREIAKLEAQAVELGVYVGLSLHGLLQTPEHARALFEVWQPAYSPEEAERRMAARMARKAIFERSPAPALSFVQEEATLRRPVGGTMVWRQQLEHLLEVGQLRNVTLQVMPTNSEAHPGLSGRIEVLKFSDGTAVGRSDGAYNGRPISDPKQLRILELRYGTIRAQALPPRESLAFIEQLLGET	not soluble
MGSDKIHHHHHHMNIERADFVDRVKIFVKAGDGGNGCVSFRREKYVPKGGPDGGDGGNGGFVFLRANPSVSTLIEFVNKRKFMAENGKHGMGKKMKGRNGKDLFIDVPVGTVVKDAVTGEVIADLNEPGKIVCVARGGRGGRGNAHFATSIKQAPLIAERGEKGESRWLELELKILADVGLVGYPNVGKSSLISRISNARPKIANYPFTTLIPNLGVVKYDDFSFVVADIPGLIEGASEGVGLGNVFLRHVERCYLIAHVIDVSGYEREDPVRDYFVIREEMKKYSPFLLEKPEIVVANKIDLIGKEELEKILKRLRDATNREVIPVSAVTGEGIDLLVSKLASIVREMKVEKPERKEEKFVKPSPVWRRLPEKFHLEVVKEDEGYWVVEGENLRVWIERFDLNQRDARLMLLQVLEKNGLNNKLKEAGVKEGDVVRIGDFEFEYRE	not soluble
MGSDKIHHHHHHMNIIGFSKALFSTWIYYSPERILFDAGEGVSTTLGSKVYAFKYVFLTHGHVDHIAGLWGVVNIRNNGMGDREKPLDVFYPEGNRAVEEYTEFIKRANPDLRFSFNVHPLKEGERVFLRNAGGFKRYVQPFRTKHVSSEVSFGYHIFEVRRKLKKEFQGLDSKEISRLVKEKGRDFVTEEYHKKVLTISGDSLALDPEEIRGTELLIHECTFLDARDRRYKNHAAIDEVMESVKAAGVKKVILYHISTRYIRQLKSVIKKYREEMPDVEILYMDPRKVFEM	not soluble
MGSDKIHHHHHHMNKDLKAIKWFITTQILKDPFNPAYATFKVTSRCNLRCTFCSPSYYSGELGEGSTERVKKIIDNLRDSSIVVLSFEGGEPTYRPDILDLLEYAHDGSFYIMLTTNGYRLKDEDFLTKLADKIDFLHYSIDEYHWNVKELENLCRFRKYGLKVNVQTVVTRYNLYKLEEKVRKVAECGYKILAMPAVDYPNSKVKLAPDPYEFYKVLYDLKRKYGSTLNNSWGFINAIIGKVPKRVVSYAITIYPNGDLPYPDDINGEIVGNVAEEPLNKILQSSKVKELQQKMLENQAKFEYLHLQTASFNNIRDLASYVSEMLRWRFTGRA	not soluble
MGSDKIHHHHHHMNKLNFKGSVMLNPTPVVLVTSKDKSQNLNVFTVGWVSTVCTKDPIIAMGIRPERLSYQYIKESCECVINLPTTSMVKIVDYCGVVSGRRVDKIKHFSLPLNDGVSISTPSLENCPVALECKVKSVTPLGTHDLFLLQVLNVKIDETLLDKNNKICFNKANLMCYNHGEYYGLNSKPIGSFGFSVKKKTKKIHRRKKGD	not soluble
MGSDKIHHHHHHMNKRRNGLSSRSSTKGITTITIDPLMLVEMMHIHDSAFPIGGYTHSFGLETYIQRDIVKDENSLIQWCRTYLYDNLGYGDGILLKETLEVLKKSGSLAAIIEVDRLAHAQKLARESREGSLKMGRQFLQTVLPLQEDESLSQWAQLIRAKEAHGHYATTYGVFSYTRAYPDQMTMIAFLYSSVANLVHNAVRAIPLGQSTGVRVIHQLHEDCLYVAQQVVARSLNDLSNHAIGIELASMEHEHLHSRLFIS	not soluble
MGSDKIHHHHHHMNLEDIFSILPEKIEREVKRISDYNNLQEIRIKVNKPLIIQIGKKEIISNYIATKEDLKKTFNVMSGYSIYSVEDELRQGYITIKGGHRVGICGDCVLEENKIKTIKNISSLNIRICKEVTGCSNSIMKKIVYGNTVLNTIIISPPNCGKTTLLRDITRNISYGINSIQFRGKKVCVIDERSEIGACLNGVNQMDIGIRTDILDNCPKSIGIMMAIRSMAPEVIICDEIGTYDDIKSILTAVNCGVKLITTIHGFGIEDLNSRDVFKDAIKNNVFERAIVLSGRSGVGTVEYIYDFYTKERERGL	not soluble
MGSDKIHHHHHHMNLRNTAVFKFLVLTLGIISCQAYAEDTVIVNDHDISAIKDCWQKNSDDDTDVNVIKSCLRQEYNLVDAQLNKAYGEAYRYIEQVPRTGVKKPDTEQLNLLKKSQRAWLDFRDKECELILSNEDVQDLSDPYSESEWLSCMIIQTNTRTRQLQLYRNSEDFYPSPLTRG	not soluble
MGSDKIHHHHHHMNLTELMERIPHLREILNIVREAFKDYDDPAHDISHTFRVMENASEIASREKCDLQKAIIAALLHDIKRPHEALTGVDHAESGAEYASGLLPTMGFDISFVAEVSKAIRSHRYSGGLTPTSLTGKILQDADRLDAIGAVAIARVFSYSGKTGTPLHSLQFSPRSSYSGNSRSSINHFHEKILKIRPETFWTETARKMAEDRYSFVVEFVQRFLAEWGQI	not soluble
MGSDKIHHHHHHMNLVMEKTFEQYEKLFSMEEQKREDVFRYTMMRPFEKMWTAIQVPLKAKEPNGYDVIMAAKMLGYLDVRDAESGQKALQILKESHVSETAESALRQCIFFAEREQLRVNAKEIKFGLYIADPNKLQLQKGYCGFGGIPGFIHVWINPNSYNLPRIPSIIAHEFHHNVRFSYIDFHHGSVSVGDYLVIEGLAESFARELFGTERLGPWVTRFDHEDLQYSIDVINEVLDVKGFSEVSRYMFGDPIANDQGFKPAGLSAFAGYAVGYHAVQSFMNQHHITISEATRLDAKTIISQCGLFLHEKSVTYSGAF	not soluble
MGSDKIHHHHHHMNLYQTKLFTTLQKEYKNKYGVDISQFVKLTNSSINFDKFEEEQLTLKQKNVIKSIKKNNEKKIILSGGIASGKTYLACYLFLKSLIEIKKLYSSDTNNFIIGNSQRSVEVNVLGQFEKLCKLLKIPYIPRHTNNSYILIDSLRINLYGGDKASDFERFRGSNSALIFVNEATTLHKQTLEEVLKRLRCGQETIIFDTNPDHPEHYFKTDYIDNIATFKTYKFTTYDNVLLSKGFVETQEKLYKDIPSYKARVLLGEWIASTDSIFTQINITDDYVFTSPIAYLDPAFSVGGDNTALCVMERVDDKYYAFVFQDQRPANDPYIMNMVKTVIENFNVHTLYLEDRDNTKGAGGLTREYILLRSNISQYFRIVPVKPKSNKFSRITTLITPFTYKKLYITKYSSSSVFNDIYSYKGDNKTHDDALDAISAAYLMLSLGYRERSVHFGNQRFL	not soluble
MGSDKIHHHHHHMNMFLGEGWQVKPAGGATGEAYIAEQGEQRLFLKRNSSPFLAVLSAEGIVPKLLWTKRLENGDVITAQRWVYGRELKAFEMKEPNVAHLLAKIHHSVELLDMFKRMGNDMLTPQRIIDDLKASMKRHECDDLLFQKGLKFLQTQQEAVNQEQYVVCHCDINHNNWMMSDAGELYLIDWDGATVADPALDLGLLLYSYVPRHEWKTWLANYGLEMSDHLLLRMHWYVVSQTISVMLSNMDRGKHAEAETWQDFLKTLLDDSF	not soluble
MGSDKIHHHHHHMNNNIPLRALQIFEACARLESCSLAANELCITQSAVSQQIKQLEDYFLEKLFYRQGGKINLTEAGIELRERLAPVFYDLNSVCSSLVQNMAGEVRVHSYTSLAARWLVPKMEQLRQMYPELNINVGMFQNDIEMSDMIADIFIVTRECQDGYTIIPLVTEKLVAFCSPDYLAQSQGISLATLDQHCLLYSKHKDYGVDWDTWFRNNDIAISPNQKKIFFNHNMLAVQAAIYGQGIVLGLEQTLKVELDSGNLVKLDLPTCLSGLTYYIAYKTSKKRDARIMRIVDWIIDNYPGDHPGDRTLAR	not soluble
MGSDKIHHHHHHMNNTTENGQYFVAAFEPGAEHPALPTWASCNDNGAELALSAPSTVSKKPLTDVPGAFQLLNVLSADECQRLISVSETMGFLPDAAVSLPRNVRHNDSLTWVVDNTTERLIWDRIAGVMTDDLGIFEGKAALGLNNRFRFYRYNEGDYFKPHSDGSWPGSQVIDGELVRDAFGDRYSQLTFLILLTEDFEGGATRFLVNADKPNLPAKHGDNMRQVDVRTPAGSVLCFPHGMHPLHCIHSSEPIFSGVKYIIRTDVLFEL	not soluble
